# Laboratory results published in PMC3965549, “Evidence for LINC1-SUN Associations at the Plant Nuclear Periphery” (PLoS ONE, 2014).
# Molecular target: T1, AtLINC1-YFP (Arabidopsis, UniProt F4HRT5 1-1132)
# T1 construct: Little Nuclei 1 (LINC1) of Arabidopsis; also called Little Nuclei 1
# T1 sequence (looked up): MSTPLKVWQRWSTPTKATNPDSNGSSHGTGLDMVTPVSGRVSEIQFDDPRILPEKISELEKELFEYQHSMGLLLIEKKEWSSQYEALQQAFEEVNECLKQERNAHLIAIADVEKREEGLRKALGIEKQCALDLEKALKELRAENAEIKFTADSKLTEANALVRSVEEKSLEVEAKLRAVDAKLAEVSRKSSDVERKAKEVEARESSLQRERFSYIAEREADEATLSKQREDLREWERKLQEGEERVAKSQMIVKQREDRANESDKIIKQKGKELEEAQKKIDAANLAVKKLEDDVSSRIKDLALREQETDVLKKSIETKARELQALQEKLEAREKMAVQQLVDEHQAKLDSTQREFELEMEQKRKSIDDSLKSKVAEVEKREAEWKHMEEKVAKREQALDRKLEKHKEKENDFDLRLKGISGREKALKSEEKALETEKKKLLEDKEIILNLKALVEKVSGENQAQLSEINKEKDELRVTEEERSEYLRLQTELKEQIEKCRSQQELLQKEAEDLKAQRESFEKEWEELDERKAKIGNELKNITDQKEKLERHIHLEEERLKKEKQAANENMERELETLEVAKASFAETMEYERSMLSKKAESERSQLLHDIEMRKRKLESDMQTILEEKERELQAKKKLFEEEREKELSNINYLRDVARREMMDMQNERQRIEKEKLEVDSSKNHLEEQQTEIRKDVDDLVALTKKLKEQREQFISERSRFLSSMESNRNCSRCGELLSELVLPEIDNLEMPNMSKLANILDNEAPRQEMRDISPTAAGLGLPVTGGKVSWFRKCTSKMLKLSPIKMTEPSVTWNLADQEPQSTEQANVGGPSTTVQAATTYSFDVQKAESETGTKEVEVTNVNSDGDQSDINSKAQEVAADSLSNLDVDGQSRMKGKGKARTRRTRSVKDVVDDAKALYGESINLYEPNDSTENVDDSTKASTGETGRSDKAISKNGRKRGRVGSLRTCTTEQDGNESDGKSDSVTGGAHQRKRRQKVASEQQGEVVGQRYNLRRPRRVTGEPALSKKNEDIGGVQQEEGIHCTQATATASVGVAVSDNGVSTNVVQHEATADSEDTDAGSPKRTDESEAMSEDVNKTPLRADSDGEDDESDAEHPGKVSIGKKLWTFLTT
# Test: FRET or BRET; acceptor photobleaching FRET (apFRET) in N. benthamiana leaf cells 3 days after infiltration; CFP donor on the SUN constructs, YFP acceptor on AtLINC1; YFP bleached in a constant ROI; pre-bleach fluorescence as internal negative control; about 35 NE per sample
# Conditions: partners not purified
row,FRET efficiency (EF),Binder
1,1.85%,"AtSUN1-CFP (natural protein, Arabidopsis, UniProt Q9FF75 1-471, looked up, AtSUN1, Sad1/UNC84 domain protein 1 of Arabidopsis; also called full length AtSUN1; source: Nicotiana benthamiana leaves, transient expression by A. tumefaciens GV3101 infiltration (pK7CWG2), in living cells; not shown: CFP, C-terminal, kept) MSASTVSITANTAAATRRTPILAGEKKSNFDYPQSESLANGGVGEAGGTSRDLSRGEATLDRSQGQDLGPVTRRSVSAATGTNTTATQRRTRKVATPKSEKARWKTVVRIFAKQLGALLIIVGLIQLTRKMILKASSPSSPISSYETEMAFSGLESRIAEVDGLVKATTNSMQVQVELLDKKMEREAKVLRQEIERKASAFQSELKKIESRTESLEKSVDEVNAKPWVTKDELERIYEELKKGNVDDSAFSEISIDELRAYARDIMEKEIEKHAADGLGRVDYALASGGAFVMEHSDPYLVGKGSSWFATTMRRAHTNAVKMLSPSFGEPGQCFPLKGSEGYVQIRLRGPIIPEAFTLEHVAKSVAYDRSSAPKDCRVSGSLQGPESSAETENMQLLTEFTYDLDRSNAQTFNILESSSSGLIDTVRLDFTSNHGSDSHTCIYRFRVHGRAPDPVPVVGTNLDQDSSPESE"
2,1.29%,"AtSUN2^1–106-CFP (domain or fragment, Arabidopsis, UniProt Q9SG79 1-106, looked up, N-terminus of AtSUN2 of Arabidopsis: the first 318 bp (106 aa) of the CDS; also called SUN2 N-terminus; AtSUN2 N-terminus; source: Nicotiana benthamiana leaves, transient expression by A. tumefaciens GV3101 infiltration (pK7CWG2), in living cells; not shown: CFP, C-terminal, kept) MSASTVSITASPRTIRRTPVLSGEKKSNFDFPPSESHANAAIGESSAGTNKDLIRAEAAGERSNTYDVGPVTRKSGSTATGTNTTTTQRRTRKSQGNKIDRGKWKT"
3,1.9%,"AtSUN2-CFP (natural protein, Arabidopsis, UniProt Q9SG79 1-455, looked up, AtSUN2, Sad1/UNC84 domain protein 2 of Arabidopsis; also called full length AtSUN2; source: Nicotiana benthamiana leaves, transient expression by A. tumefaciens GV3101 infiltration (pK7CWG2), in living cells; not shown: CFP, C-terminal, kept) MSASTVSITASPRTIRRTPVLSGEKKSNFDFPPSESHANAAIGESSAGTNKDLIRAEAAGERSNTYDVGPVTRKSGSTATGTNTTTTQRRTRKSQGNKIDRGKWKTVVRVFAKQFGALLLLVGLIQLIRKLTLKDSSLSSSNFPIETEMVLSELESRISAVDGLVKTTTKMMQVQVEFLDKKMDSESRALRQTIDSTSSVLHSELKKVESKTERLQVSVDELNAKPLVSREELERVYEELKKGKVGDSDVNIDKLRAYARDIVEKEIGKHVADGLGRVDYALASGGAFVMGHSDPFLVGNGRNWFGTSRRRVHSKAVKMLTPSFGEPGQCFPLKGSNGYVLVRLRAPIIPEAVTLEHVSKAVAYDRSSAPKDCRVSGWLGDIDMETETMPLLTEFSYDLDRSNAQTFDIADSAHSGLVNTVRLDFNSNHGSSSHTCIYRFRVHGRELDSVSVAHA"
